Article PMC9482650, “Quantitative fragmentomics allow affinity mapping of interactomes” (Nature Communications, 2022)

T1: LIN7B, Q9HAP6
T1 sequence (Q9HAP6 88-185, limits assumed, looked up): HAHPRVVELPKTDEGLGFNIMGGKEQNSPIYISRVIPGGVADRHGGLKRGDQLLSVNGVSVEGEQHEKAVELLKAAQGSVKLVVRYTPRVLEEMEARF

T2: DFNB31_1, Q9P202
T2 sequence (Q9P202 135-233, limits assumed, looked up): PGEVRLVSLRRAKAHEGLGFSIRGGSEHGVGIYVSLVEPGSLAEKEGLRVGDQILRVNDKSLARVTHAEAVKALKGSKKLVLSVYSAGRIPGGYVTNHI

T3: TIAM2, Q8IVF5
T3 sequence (Q8IVF5 885-986, limits assumed, looked up): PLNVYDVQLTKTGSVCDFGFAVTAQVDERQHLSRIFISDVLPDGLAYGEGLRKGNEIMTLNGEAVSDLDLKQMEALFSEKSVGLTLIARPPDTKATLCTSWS

T4: MPP7, Q5T2T1
T4 sequence (Q5T2T1 134-230, limits assumed, looked up): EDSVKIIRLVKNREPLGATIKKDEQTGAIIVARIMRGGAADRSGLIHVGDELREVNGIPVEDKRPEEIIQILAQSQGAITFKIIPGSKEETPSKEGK

T5: ARHGAP21, Q5T5U3
T5 sequence (Q5T5U3 45-169, limits assumed, looked up): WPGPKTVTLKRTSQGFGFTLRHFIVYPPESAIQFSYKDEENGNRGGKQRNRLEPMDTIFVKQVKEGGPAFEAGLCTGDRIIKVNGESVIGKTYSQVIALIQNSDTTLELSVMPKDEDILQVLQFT

T6: DLG3_1, Q92796
T6 sequence (Q92796 125-227, limits assumed, looked up): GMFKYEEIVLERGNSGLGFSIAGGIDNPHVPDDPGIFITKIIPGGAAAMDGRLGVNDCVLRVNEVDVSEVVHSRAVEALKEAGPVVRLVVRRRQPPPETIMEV

T7: MPDZ_12, O75970
T7 sequence (O75970 1857-1958, limits assumed, looked up): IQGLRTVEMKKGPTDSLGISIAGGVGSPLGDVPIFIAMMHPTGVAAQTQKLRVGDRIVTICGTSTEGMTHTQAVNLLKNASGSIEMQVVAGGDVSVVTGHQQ

T8: RHPN1, Q8TCX5
T8 sequence (Q8TCX5 508-602, limits assumed, looked up): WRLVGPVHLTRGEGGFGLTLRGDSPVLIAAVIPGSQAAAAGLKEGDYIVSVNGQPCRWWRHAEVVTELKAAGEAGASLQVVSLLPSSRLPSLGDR

T9: PDZD7_3, Q9H5P4
T9 sequence (Q9H5P4 857-944, limits assumed, looked up): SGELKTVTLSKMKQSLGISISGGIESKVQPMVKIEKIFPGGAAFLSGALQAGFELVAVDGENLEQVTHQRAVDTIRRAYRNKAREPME

T10: DLG3_3, Q92796
T10 sequence (Q92796 374-475, limits assumed, looked up): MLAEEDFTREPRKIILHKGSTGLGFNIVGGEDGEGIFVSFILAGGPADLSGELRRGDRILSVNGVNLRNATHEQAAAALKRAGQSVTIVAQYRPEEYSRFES

T11: PDZRN3_1, Q9UPQ7
T11 sequence (Q9UPQ7 244-349, limits assumed, looked up): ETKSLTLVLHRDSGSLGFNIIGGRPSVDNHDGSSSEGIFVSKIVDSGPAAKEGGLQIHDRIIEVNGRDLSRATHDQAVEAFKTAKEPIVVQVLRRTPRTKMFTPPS

T12: SHANK1, Q9Y566
T12 sequence (Q9Y566 658-767, limits assumed, looked up): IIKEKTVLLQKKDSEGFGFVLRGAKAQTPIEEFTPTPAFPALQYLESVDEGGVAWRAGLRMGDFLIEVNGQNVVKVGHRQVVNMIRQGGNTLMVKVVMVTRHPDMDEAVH


Key:
Experiment in all cases: holdup assay
Set-up in all cases: key: below the threshold = too weak to quantify, mostly under pKd 3.1 to 4
Details in all cases: plain residues with an end cap or a label only (N-terminal biotin on a linker: ado-ado)
LIN7B, Q9HAP6 = molecular target: T1, LIN7B, Q9HAP6
SCRIB_2, Q14160 = molecular target: SCRIB_2, Q14160
SCRIB_2, Q14160, sequence (Q14160 857-960): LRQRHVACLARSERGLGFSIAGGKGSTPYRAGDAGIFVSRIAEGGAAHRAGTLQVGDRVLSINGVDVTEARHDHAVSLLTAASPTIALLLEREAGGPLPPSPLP

HTRA2, O43464 = molecular target: HTRA2, O43464
HTRA2, O43464, sequence (O43464 355-458): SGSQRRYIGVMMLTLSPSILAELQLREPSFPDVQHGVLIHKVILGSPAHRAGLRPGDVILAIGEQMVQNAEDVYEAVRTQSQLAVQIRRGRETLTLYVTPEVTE

IL16_1, Q14005 = molecular target: IL16_1, Q14005
IL16_1, Q14005, sequence (Q14005 210-306): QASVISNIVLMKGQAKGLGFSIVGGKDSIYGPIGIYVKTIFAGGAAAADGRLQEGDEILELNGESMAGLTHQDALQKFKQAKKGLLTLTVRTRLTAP

PTPN3, P26045 = molecular target: PTPN3, P26045
PTPN3, P26045, sequence (P26045 505-587): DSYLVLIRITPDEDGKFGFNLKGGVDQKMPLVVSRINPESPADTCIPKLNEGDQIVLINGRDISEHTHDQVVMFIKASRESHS

DFNB31_1, Q9P202 = molecular target: T2, DFNB31_1, Q9P202
TIAM2, Q8IVF5 = molecular target: T3, TIAM2, Q8IVF5
MPP7, Q5T2T1 = molecular target: T4, MPP7, Q5T2T1
DLG1_1, Q12959 = molecular target: DLG1_1, Q12959
MAGI2_4, Q86UL8 = molecular target: MAGI2_4, Q86UL8
MAGI2_4, Q86UL8, sequence (Q86UL8 772-865): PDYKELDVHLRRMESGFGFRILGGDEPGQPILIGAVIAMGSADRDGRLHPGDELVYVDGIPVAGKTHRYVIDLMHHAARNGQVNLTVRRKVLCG

ARHGAP21, Q5T5U3 = molecular target: T5, ARHGAP21, Q5T5U3
DLG3_1, Q92796 = molecular target: T6, DLG3_1, Q92796
MAST1, Q9Y2H9 = molecular target: MAST1, Q9Y2H9
MAST1, Q9Y2H9, sequence (Q9Y2H9 962-1065): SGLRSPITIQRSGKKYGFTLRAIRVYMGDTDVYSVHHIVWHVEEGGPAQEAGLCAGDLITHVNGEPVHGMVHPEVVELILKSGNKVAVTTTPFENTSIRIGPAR

MPDZ_12, O75970 = molecular target: T7, MPDZ_12, O75970
ARHGEF12, Q9NZN5-2 = molecular target: ARHGEF12, Q9NZN5-2
ARHGEF12, Q9NZN5-2, sequence (Q9NZN5 other isoform, or with tags, fused parts or gaps): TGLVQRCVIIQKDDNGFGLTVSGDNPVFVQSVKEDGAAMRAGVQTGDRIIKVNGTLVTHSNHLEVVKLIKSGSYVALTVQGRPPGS

RHPN1, Q8TCX5 = molecular target: T8, RHPN1, Q8TCX5
PDZD7_3, Q9H5P4 = molecular target: T9, PDZD7_3, Q9H5P4
GOPC, Q9HD26 = molecular target: GOPC, Q9HD26
SCRIB_3, Q14160 = molecular target: SCRIB_3, Q14160
SCRIB_3, Q14160, sequence (Q14160 999-1103): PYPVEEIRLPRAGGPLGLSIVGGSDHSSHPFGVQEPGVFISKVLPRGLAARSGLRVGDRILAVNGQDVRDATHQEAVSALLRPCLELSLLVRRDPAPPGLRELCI

LNX1_1, Q8TBB1 = molecular target: LNX1_1, Q8TBB1
LNX1_1, Q8TBB1, sequence (Q8TBB1 261-371): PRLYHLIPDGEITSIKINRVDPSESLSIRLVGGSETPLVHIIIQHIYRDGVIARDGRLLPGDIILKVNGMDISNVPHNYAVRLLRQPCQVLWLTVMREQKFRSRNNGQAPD

PARD3_3, Q8TEW0 = molecular target: PARD3_3, Q8TEW0
PARD3_3, Q8TEW0, sequence (Q8TEW0 582-685): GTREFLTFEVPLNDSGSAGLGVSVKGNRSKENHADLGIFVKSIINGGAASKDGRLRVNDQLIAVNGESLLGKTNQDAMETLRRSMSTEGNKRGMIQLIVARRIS

DLG3_3, Q92796 = molecular target: T10, DLG3_3, Q92796
LDB3, O75112 = molecular target: LDB3, O75112
LDB3, O75112, sequence (O75112 1-94): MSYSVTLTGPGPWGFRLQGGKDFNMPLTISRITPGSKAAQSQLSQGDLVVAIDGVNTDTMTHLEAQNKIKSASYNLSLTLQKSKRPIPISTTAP

PDZRN3_1, Q9UPQ7 = molecular target: T11, PDZRN3_1, Q9UPQ7
SHANK1, Q9Y566 = molecular target: T12, SHANK1, Q9Y566

pKd (LIN7B, Q9HAP6)	pKd (SCRIB_2, Q14160)	pKd (HTRA2, O43464)	pKd (IL16_1, Q14005)	pKd (PTPN3, P26045)	pKd (DFNB31_1, Q9P202)	pKd (TIAM2, Q8IVF5)	pKd (MPP7, Q5T2T1)	pKd (DLG1_1, Q12959)	pKd (MAGI2_4, Q86UL8)	pKd (ARHGAP21, Q5T5U3)	pKd (DLG3_1, Q92796)	pKd (MAST1, Q9Y2H9)	pKd (MPDZ_12, O75970)	pKd (ARHGEF12, Q9NZN5-2)	pKd (RHPN1, Q8TCX5)	pKd (PDZD7_3, Q9H5P4)	pKd (GOPC, Q9HD26)	pKd (SCRIB_3, Q14160)	pKd (LNX1_1, Q8TBB1)	Binder	further results
below the threshold	below the threshold	below the threshold	3.49	4.1	3.5	below the threshold	below the threshold	below the threshold	below the threshold	3.91	below the threshold	4.12	below the threshold	below the threshold	below the threshold	below the threshold	below the threshold	below the threshold	below the threshold	LGHTPFVDEL [UQCRC2, P22695]	pKd (PARD3_3, Q8TEW0): below the threshold; pKd (DLG3_3, Q92796): below the threshold; pKd (LDB3, O75112): below the threshold; pKd (PDZRN3_1, Q9UPQ7): below the threshold; pKd (SHANK1, Q9Y566): below the threshold
below the threshold	below the threshold	below the threshold	below the threshold	below the threshold	3.59	below the threshold	below the threshold	below the threshold	below the threshold	3.94	below the threshold	4.09	below the threshold	4.09	4.34	4.17	4.52	below the threshold	3.74	YPKQMPLSQV [FZD8, Q9H461]	pKd (PARD3_3, Q8TEW0): below the threshold; pKd (DLG3_3, Q92796): below the threshold; pKd (LDB3, O75112): below the threshold; pKd (PDZRN3_1, Q9UPQ7): below the threshold; pKd (SHANK1, Q9Y566): below the threshold
below the threshold	4.82	4.05	4.13	4.96	4.28	below the threshold	below the threshold	3.96	4.32	3.56	3.97	3.97	4.69	3.54	4.26	4.11	below the threshold	4.48	3.98	QYPGSPDSWV [PKP4, Q99569]	pKd (PARD3_3, Q8TEW0): 3.85; pKd (DLG3_3, Q92796): below the threshold; pKd (LDB3, O75112): 3.82; pKd (PDZRN3_1, Q9UPQ7): 3.77; pKd (SHANK1, Q9Y566): below the threshold
3.52	below the threshold	below the threshold	below the threshold	3.79	below the threshold	3.8	below the threshold	below the threshold	below the threshold	4.51	below the threshold	3.72	below the threshold	below the threshold	below the threshold	below the threshold	below the threshold	below the threshold	below the threshold	GDGLDDEIAV [NOS1AP, O75052]	pKd (PARD3_3, Q8TEW0): 4.3; pKd (DLG3_3, Q92796): below the threshold; pKd (LDB3, O75112): below the threshold; pKd (PDZRN3_1, Q9UPQ7): below the threshold; pKd (SHANK1, Q9Y566): below the threshold
3.82	below the threshold	below the threshold	below the threshold	3.84	below the threshold	4.02	3.79	below the threshold	below the threshold	below the threshold	below the threshold	below the threshold	3.49	below the threshold	below the threshold	4.85	below the threshold	below the threshold	below the threshold	DFRHKSSFVI [JAM3, Q9BX67]	pKd (PARD3_3, Q8TEW0): 3.94; pKd (DLG3_3, Q92796): below the threshold; pKd (LDB3, O75112): 3.76; pKd (PDZRN3_1, Q9UPQ7): below the threshold; pKd (SHANK1, Q9Y566): below the threshold
below the threshold	below the threshold	below the threshold	below the threshold	below the threshold	below the threshold	below the threshold	below the threshold	3.63	3.69	4.04	below the threshold	below the threshold	below the threshold	4.19	below the threshold	4.13	3.87	3.81	3.7	QNRIITKTDV [SMCHD1, A6NHR9]	pKd (PARD3_3, Q8TEW0): below the threshold; pKd (DLG3_3, Q92796): below the threshold; pKd (LDB3, O75112): below the threshold; pKd (PDZRN3_1, Q9UPQ7): below the threshold; pKd (SHANK1, Q9Y566): below the threshold
